Where no end group is shown, it is not given here. [ ]: non-standard residue; d: D form.

Results on 1 molecule are retold here after patent US20090048161A1.

In this test the target is IL-1R on freshly isolated rat thymocytes (rat) (UniProt Q02955). Kind of test: radioligand binding on freshly isolated rat thymocytes: displacement of 6 nM I^125-API-101.10 by increasing non-radioactive API-101.10 (printed as 'affinity').

For the molecule [dR][dY][dT][dV][dE][dL][dA] (also: 125I-labelled form used as tracer, site not given here) [API-101.10], the Kd (in general, the equilibrium constant for the complex coming apart) is 1000 nM.
